Data reported in patent US20140087995A1 (published 2014).
Numbered stars: 1 amine (or outer) side, 2 acyl side, 3 side chain; on linkers, the order of the positions; unused ones are H or OH. Bridge positions count the residues as written; N and C are the ends. Side chains are listed from the residue outwards. Ends that are not written are not given here. * marks the point of attachment. C20 diacid = O=C(O)CCCCCCCCCCCCCCCCCCC(=O)*; γGlu = O=C(O)[C@H](CCC(=O)[*:2])N[*:1]; C14 diacid = O=C(O)CCCCCCCCCCCCC(=O)*; AEEA = NCCOCCOCC(=O)O

T1: human amylin 3(a) receptor (human calcitonin receptor co-expressed with RAMP-3) (human, UniProt P30988 25-474; O60896 24-148, limits assumed)
T1 sequence (looked up) 1: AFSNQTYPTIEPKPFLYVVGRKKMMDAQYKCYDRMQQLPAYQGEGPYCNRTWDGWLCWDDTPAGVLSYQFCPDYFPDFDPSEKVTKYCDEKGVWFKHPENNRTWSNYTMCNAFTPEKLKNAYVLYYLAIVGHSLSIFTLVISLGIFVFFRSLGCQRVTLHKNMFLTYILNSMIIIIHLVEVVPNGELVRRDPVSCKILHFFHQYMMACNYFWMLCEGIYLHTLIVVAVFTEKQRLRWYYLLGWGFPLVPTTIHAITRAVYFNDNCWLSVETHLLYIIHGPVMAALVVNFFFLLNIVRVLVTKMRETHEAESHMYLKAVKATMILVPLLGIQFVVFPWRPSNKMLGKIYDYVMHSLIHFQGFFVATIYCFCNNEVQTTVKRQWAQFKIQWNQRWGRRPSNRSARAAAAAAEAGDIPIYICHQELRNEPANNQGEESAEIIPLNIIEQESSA
T1 sequence (looked up) 2: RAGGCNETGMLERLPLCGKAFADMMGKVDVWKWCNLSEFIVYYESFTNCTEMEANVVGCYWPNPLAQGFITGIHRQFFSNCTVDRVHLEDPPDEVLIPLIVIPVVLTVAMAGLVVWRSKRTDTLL

T2: human calcitonin receptor (human, UniProt P30988 25-474)
T2 sequence (looked up): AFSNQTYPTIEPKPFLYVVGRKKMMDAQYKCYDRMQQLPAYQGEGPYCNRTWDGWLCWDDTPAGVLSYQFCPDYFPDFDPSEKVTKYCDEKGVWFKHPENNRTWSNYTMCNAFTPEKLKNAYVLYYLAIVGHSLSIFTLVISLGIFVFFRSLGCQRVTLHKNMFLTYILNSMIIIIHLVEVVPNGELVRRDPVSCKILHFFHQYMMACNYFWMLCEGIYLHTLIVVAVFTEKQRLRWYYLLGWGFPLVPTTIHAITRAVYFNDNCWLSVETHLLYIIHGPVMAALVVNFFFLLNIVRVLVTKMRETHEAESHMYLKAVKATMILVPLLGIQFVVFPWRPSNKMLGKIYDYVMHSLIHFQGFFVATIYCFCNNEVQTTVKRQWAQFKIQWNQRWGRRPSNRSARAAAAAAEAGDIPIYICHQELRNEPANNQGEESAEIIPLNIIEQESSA


Assays:
[1] = biological target: T1, human amylin 3(a) receptor (human …); experiment: cell-based or functional assay
[2] = biological target: T2, human calcitonin receptor; experiment: cell-based or functional assay

Binder	hAmylin-R funct. EC50 [1]	Ratio hCT/hAmylin funct. [2]	hCTR funct. EC50 [2]
K([AEEA-AEEA-γGlu-C20 diacid])CNTATCATQRLANFLRHSSPNFGAIPSSTPVGSNTY-NH2 (disulfide 2-7; N-terminus assumed; SMILES CC[C@H](C)[C@H](NC(=O)[C@H](C)NC(=O)CNC(=O)[C@H](Cc1ccccc1)NC(=O)[C@H](CC(N)=O)NC(=O)[C@@H]1CCCN1C(=O)[C@H](CO)NC(=O)[C@H](CO)NC(=O)[C@H](Cc1c[nH]cn1)NC(=O)[C@H](CCCNC(=N)N)NC(=O)[C@H](CC(C)C)NC(=O)[C@H](Cc1ccccc1)NC(=O)[C@H](CC(N)=O)NC(=O)[C@H](C)NC(=O)[C@H](CC(C)C)NC(=O)[C@H](CCCNC(=N)N)NC(=O)[C@H](CCC(N)=O)NC(=O)[C@@H](NC(=O)[C@H](C)NC(=O)[C@@H]1CSSC[C@H](NC(=O)[C@@H](N)CCCCNC(=O)COCCOCCNC(=O)COCCOCCNC(=O)CC[C@H](NC(=O)CCCCCCCCCCCCCCCCCCC(=O)O)C(=O)O)C(=O)N[C@@H](CC(N)=O)C(=O)N[C@@H]([C@@H](C)O)C(=O)N[C@@H](C)C(=O)N[C@@H]([C@@H](C)O)C(=O)N1)[C@@H](C)O)C(=O)N1CCC[C@H]1C(=O)N[C@@H](CO)C(=O)N[C@@H](CO)C(=O)N[C@H](C(=O)N1CCC[C@H]1C(=O)N[C@H](C(=O)NCC(=O)N[C@@H](CO)C(=O)N[C@@H](CC(N)=O)C(=O)N[C@H](C(=O)N[C@@H](Cc1ccc(O)cc1)C(N)=O)[C@@H](C)O)C(C)C)[C@@H](C)O, also called compound 96)	181 pM	21	3800 pM
K([AEEA-γGlu-C20 diacid])CNTATCATQRLAHFLRHSSPNFGAIPSSTNVGHNTY-NH2 (disulfide 2-7; N-terminus assumed; SMILES CC[C@H](C)[C@H](NC(=O)[C@H](C)NC(=O)CNC(=O)[C@H](Cc1ccccc1)NC(=O)[C@H](CC(N)=O)NC(=O)[C@@H]1CCCN1C(=O)[C@H](CO)NC(=O)[C@H](CO)NC(=O)[C@H](Cc1c[nH]cn1)NC(=O)[C@H](CCCNC(=N)N)NC(=O)[C@H](CC(C)C)NC(=O)[C@H](Cc1ccccc1)NC(=O)[C@H](Cc1c[nH]cn1)NC(=O)[C@H](C)NC(=O)[C@H](CC(C)C)NC(=O)[C@H](CCCNC(=N)N)NC(=O)[C@H](CCC(N)=O)NC(=O)[C@@H](NC(=O)[C@H](C)NC(=O)[C@@H]1CSSC[C@H](NC(=O)[C@@H](N)CCCCNC(=O)COCCOCCNC(=O)CC[C@H](NC(=O)CCCCCCCCCCCCCCCCCCC(=O)O)C(=O)O)C(=O)N[C@@H](CC(N)=O)C(=O)N[C@@H]([C@@H](C)O)C(=O)N[C@@H](C)C(=O)N[C@@H]([C@@H](C)O)C(=O)N1)[C@@H](C)O)C(=O)N1CCC[C@H]1C(=O)N[C@@H](CO)C(=O)N[C@@H](CO)C(=O)N[C@H](C(=O)N[C@@H](CC(N)=O)C(=O)N[C@H](C(=O)NCC(=O)N[C@@H](Cc1c[nH]cn1)C(=O)N[C@@H](CC(N)=O)C(=O)N[C@H](C(=O)N[C@@H](Cc1ccc(O)cc1)C(N)=O)[C@@H](C)O)C(C)C)[C@@H](C)O, also called compound 80)	139 pM	15.4	2140 pM
K([γGlu-C14 diacid])CNTATCATQRLANFLRHSSPNFGAIPSSTNVGHNTY-NH2 (disulfide 2-7; N-terminus assumed; SMILES CC[C@H](C)[C@H](NC(=O)[C@H](C)NC(=O)CNC(=O)[C@H](Cc1ccccc1)NC(=O)[C@H](CC(N)=O)NC(=O)[C@@H]1CCCN1C(=O)[C@H](CO)NC(=O)[C@H](CO)NC(=O)[C@H](Cc1c[nH]cn1)NC(=O)[C@H](CCCNC(=N)N)NC(=O)[C@H](CC(C)C)NC(=O)[C@H](Cc1ccccc1)NC(=O)[C@H](CC(N)=O)NC(=O)[C@H](C)NC(=O)[C@H](CC(C)C)NC(=O)[C@H](CCCNC(=N)N)NC(=O)[C@H](CCC(N)=O)NC(=O)[C@@H](NC(=O)[C@H](C)NC(=O)[C@@H]1CSSC[C@H](NC(=O)[C@@H](N)CCCCNC(=O)CC[C@H](NC(=O)CCCCCCCCCCCCC(=O)O)C(=O)O)C(=O)N[C@@H](CC(N)=O)C(=O)N[C@@H]([C@@H](C)O)C(=O)N[C@@H](C)C(=O)N[C@@H]([C@@H](C)O)C(=O)N1)[C@@H](C)O)C(=O)N1CCC[C@H]1C(=O)N[C@@H](CO)C(=O)N[C@@H](CO)C(=O)N[C@H](C(=O)N[C@@H](CC(N)=O)C(=O)N[C@H](C(=O)NCC(=O)N[C@@H](Cc1c[nH]cn1)C(=O)N[C@@H](CC(N)=O)C(=O)N[C@H](C(=O)N[C@@H](Cc1ccc(O)cc1)C(N)=O)[C@@H](C)O)C(C)C)[C@@H](C)O) [N^ε1-[(4S)-4-carboxy-4-(13-carboxytridecanoylamino)butanoyl]-[Arg17,Pro21,Pro27,His34]-h-amylin]	28 pM	38.8	1090 pM
K([AEEA-γGlu-C20 diacid])CNTATCATQRLAHFLRHSSPNFGAIPSSTNVGRNTY-NH2 (disulfide 2-7; N-terminus assumed; SMILES CC[C@H](C)[C@H](NC(=O)[C@H](C)NC(=O)CNC(=O)[C@H](Cc1ccccc1)NC(=O)[C@H](CC(N)=O)NC(=O)[C@@H]1CCCN1C(=O)[C@H](CO)NC(=O)[C@H](CO)NC(=O)[C@H](Cc1c[nH]cn1)NC(=O)[C@H](CCCNC(=N)N)NC(=O)[C@H](CC(C)C)NC(=O)[C@H](Cc1ccccc1)NC(=O)[C@H](Cc1c[nH]cn1)NC(=O)[C@H](C)NC(=O)[C@H](CC(C)C)NC(=O)[C@H](CCCNC(=N)N)NC(=O)[C@H](CCC(N)=O)NC(=O)[C@@H](NC(=O)[C@H](C)NC(=O)[C@@H]1CSSC[C@H](NC(=O)[C@@H](N)CCCCNC(=O)COCCOCCNC(=O)CC[C@H](NC(=O)CCCCCCCCCCCCCCCCCCC(=O)O)C(=O)O)C(=O)N[C@@H](CC(N)=O)C(=O)N[C@@H]([C@@H](C)O)C(=O)N[C@@H](C)C(=O)N[C@@H]([C@@H](C)O)C(=O)N1)[C@@H](C)O)C(=O)N1CCC[C@H]1C(=O)N[C@@H](CO)C(=O)N[C@@H](CO)C(=O)N[C@H](C(=O)N[C@@H](CC(N)=O)C(=O)N[C@H](C(=O)NCC(=O)N[C@@H](CCCNC(=N)N)C(=O)N[C@@H](CC(N)=O)C(=O)N[C@H](C(=O)N[C@@H](Cc1ccc(O)cc1)C(N)=O)[C@@H](C)O)C(C)C)[C@@H](C)O, also called compound 84)	169 pM	32.5	5490 pM
K([AEEA-AEEA-γGlu-C20 diacid])CNTATCATQRLANFLRHSSPNFGAIPSSTNVGPNTY-NH2 (disulfide 2-7; N-terminus assumed; SMILES CC[C@H](C)[C@H](NC(=O)[C@H](C)NC(=O)CNC(=O)[C@H](Cc1ccccc1)NC(=O)[C@H](CC(N)=O)NC(=O)[C@@H]1CCCN1C(=O)[C@H](CO)NC(=O)[C@H](CO)NC(=O)[C@H](Cc1c[nH]cn1)NC(=O)[C@H](CCCNC(=N)N)NC(=O)[C@H](CC(C)C)NC(=O)[C@H](Cc1ccccc1)NC(=O)[C@H](CC(N)=O)NC(=O)[C@H](C)NC(=O)[C@H](CC(C)C)NC(=O)[C@H](CCCNC(=N)N)NC(=O)[C@H](CCC(N)=O)NC(=O)[C@@H](NC(=O)[C@H](C)NC(=O)[C@@H]1CSSC[C@H](NC(=O)[C@@H](N)CCCCNC(=O)COCCOCCNC(=O)COCCOCCNC(=O)CC[C@H](NC(=O)CCCCCCCCCCCCCCCCCCC(=O)O)C(=O)O)C(=O)N[C@@H](CC(N)=O)C(=O)N[C@@H]([C@@H](C)O)C(=O)N[C@@H](C)C(=O)N[C@@H]([C@@H](C)O)C(=O)N1)[C@@H](C)O)C(=O)N1CCC[C@H]1C(=O)N[C@@H](CO)C(=O)N[C@@H](CO)C(=O)N[C@H](C(=O)N[C@@H](CC(N)=O)C(=O)N[C@H](C(=O)NCC(=O)N1CCC[C@H]1C(=O)N[C@@H](CC(N)=O)C(=O)N[C@H](C(=O)N[C@@H](Cc1ccc(O)cc1)C(N)=O)[C@@H](C)O)C(C)C)[C@@H](C)O, also called compound 98)	84 pM	19.5	1630 pM
K([AEEA-γGlu-C20 diacid])CNTATCATQRLARFLRHSSPNFGAIPSSTNVGSNTY-NH2 (disulfide 2-7; N-terminus assumed; SMILES CC[C@H](C)[C@H](NC(=O)[C@H](C)NC(=O)CNC(=O)[C@H](Cc1ccccc1)NC(=O)[C@H](CC(N)=O)NC(=O)[C@@H]1CCCN1C(=O)[C@H](CO)NC(=O)[C@H](CO)NC(=O)[C@H](Cc1c[nH]cn1)NC(=O)[C@H](CCCNC(=N)N)NC(=O)[C@H](CC(C)C)NC(=O)[C@H](Cc1ccccc1)NC(=O)[C@H](CCCNC(=N)N)NC(=O)[C@H](C)NC(=O)[C@H](CC(C)C)NC(=O)[C@H](CCCNC(=N)N)NC(=O)[C@H](CCC(N)=O)NC(=O)[C@@H](NC(=O)[C@H](C)NC(=O)[C@@H]1CSSC[C@H](NC(=O)[C@@H](N)CCCCNC(=O)COCCOCCNC(=O)CC[C@H](NC(=O)CCCCCCCCCCCCCCCCCCC(=O)O)C(=O)O)C(=O)N[C@@H](CC(N)=O)C(=O)N[C@@H]([C@@H](C)O)C(=O)N[C@@H](C)C(=O)N[C@@H]([C@@H](C)O)C(=O)N1)[C@@H](C)O)C(=O)N1CCC[C@H]1C(=O)N[C@@H](CO)C(=O)N[C@@H](CO)C(=O)N[C@H](C(=O)N[C@@H](CC(N)=O)C(=O)N[C@H](C(=O)NCC(=O)N[C@@H](CO)C(=O)N[C@@H](CC(N)=O)C(=O)N[C@H](C(=O)N[C@@H](Cc1ccc(O)cc1)C(N)=O)[C@@H](C)O)C(C)C)[C@@H](C)O, also called compound 82)	215 pM	59.2	12700 pM
